Measurements: publication PMC6547438, “Bacillus subtilis DisA regulates RecA-mediated DNA strand exchange” (Nucleic Acids Research, 2019)

B1: His-tagged DisA (enzyme, Bacillus subtilis, UniProt P37573 1-360, looked up)
chain: MEKEKKGAKHELDLSSILQFVAPGTPLRAGMENVLRANTGGLIVVGYNDKVKEVVDGGFHINTAFSPAHLYELAKMDGAIILSDSGQKILYANTQLMPDATISSSETGMRHRTAERVAKQTGCLVIAISERRNVITLYQENMKYTLKDIGFILTKANQAIQTLEKYKTILDKTINALNALEFEELVTFSDVLSVMHRYEMVLRIKNEINMYIKELGTEGHLIKLQVIELITDMEEEAALFIKDYVKEKIKDPFVLLKELQDMSSYDLLDDSIVYKLLGYPASTNLDDYVLPRGYRLLNKIPRLPMPIVENVVEAFGVLPRIIEASAEELDEVEGIGEVRAQKIKKGLKRLQEKHYLDRQL
B2: RecA (native, untagged) (enzyme, Bacillus subtilis, UniProt P16971 1-348, looked up)
chain: MSDRQAALDMALKQIEKQFGKGSIMKLGEKTDTRISTVPSGSLALDTALGIGGYPRGRIIEVYGPESSGKTTVALHAIAEVQQQGGQAAFIDAEHALDPVYAQKLGVNIEELLLSQPDTGEQALEIAEALVRSGAVDIVVVDSVAALVPKAEIEGDMGDSHVGLQARLMSQALRKLSGAINKSKTIAIFINQIREKVGVMFGNPETTPGGRALKFYSSVRLEVRRAEQLKQGNDVMGNKTKIKVVKNKVAPPFRTAEVDIMYGEGISKEGEIIDLGTELDIVQKSGSWYSYEEERLGQGRENAKQFLKENKDIMLMIQEQIREHYGLDNNGVVQQQAEETQEELEFEE
notes: Bacillus subtilis recombinase RecA; purified protein of 38.0 kDa; The printed mass of 38.0 kDa fits the whole protein; also called native RecA; apo RecA; source: B. subtilis BG214 bearing pBT61-borne recA, over-expressed and purified

Legend:
RecA (native, untagged) = molecular target: B2; assay: cell-based or functional assay
His-tagged DisA = molecular target: B1; assay: pull-down; His-tagged DisA and native RecA (1.5 μg each) loaded on a 50-μl Ni2+ microcolumn, room temperature, Buffer A (50 mM Tris-HCl pH 7.5, 50 mM NaCl, 10 mM MgCl2, 5% glycerol) with 20 mM imidazole, without ssDNA and ATP; eluted with 1 M NaCl and 400 mM imidazole; SDS-PAGE, Coomassie and Western blot; settings: both partners purified

B1
RecA-mediated three-strand DNA exchange with SsbA and RecO in ATPγS, fold reduction at a DisA:RecA molar ratio of 1:48 (RecA (native, untagged)): ~18 fold

B2
binding result (His-tagged DisA): binds
